This data set deals with the molecule itself. As to the kind of experiment: cross-linking.

One may read the stoichiometry N as the number of molecules, sites or subunits per partner or assembly.

Consider MSLLTEVETPIRNEWGCRCNDSSDPLVVAASIIGILHLILWILDRL (domain or fragment) [M2(1-46) of influenza A/Hong Kong/8/68 (H3N2) in nanodiscs], for which the “stoichiometry N” value was found to be 4.

The record behind these values is article PMC9771723 (iScience, 2022).
